Results on seven molecules are retold here after patent US20210032299A1 (Eli Lilly, published 2021).

Starred links: 1 amine or outer side, 2 acyl side, 3 side chain; linkers in the order of their positions; H or OH if unused. Non-standard residues stand in square brackets, D forms with d. Groups on a side chain read outwards from the residue. No end group written: not given here. *: point of attachment. C20 diacid = O=C(O)CCCCCCCCCCCCCCCCCCC(=O)*; C18 diacid = O=C(O)CCCCCCCCCCCCCCCCC(=O)*; γGlu = O=C(O)[C@H](CCC(=O)[*:2])N[*:1]; 4Pal = N[C@@H](Cc1ccncc1)C(=O)O; αMeL = CC(C)C[C@](C)(N)C(=O)O; Orn = NCCC[C@H](N)C(=O)O; AEEA = NCCOCCOCC(=O)O; Aib = CC(C)(N)C(=O)O

One may read the Ki as the equilibrium dissociation constant of an inhibitor or competing ligand from its target. Higher therefore signals a looser hold on the target.

Sequences and labels used below:
T1: human glucose-dependent insulinotropic polypeptide (GIP) receptor (human, UniProt P48546 22-466)
T1 construct: whole, on cells; Assayed as crude membranes of stably transfected CHO cells; also called hGIPR; human GIP receptor
T1 sequence (looked up): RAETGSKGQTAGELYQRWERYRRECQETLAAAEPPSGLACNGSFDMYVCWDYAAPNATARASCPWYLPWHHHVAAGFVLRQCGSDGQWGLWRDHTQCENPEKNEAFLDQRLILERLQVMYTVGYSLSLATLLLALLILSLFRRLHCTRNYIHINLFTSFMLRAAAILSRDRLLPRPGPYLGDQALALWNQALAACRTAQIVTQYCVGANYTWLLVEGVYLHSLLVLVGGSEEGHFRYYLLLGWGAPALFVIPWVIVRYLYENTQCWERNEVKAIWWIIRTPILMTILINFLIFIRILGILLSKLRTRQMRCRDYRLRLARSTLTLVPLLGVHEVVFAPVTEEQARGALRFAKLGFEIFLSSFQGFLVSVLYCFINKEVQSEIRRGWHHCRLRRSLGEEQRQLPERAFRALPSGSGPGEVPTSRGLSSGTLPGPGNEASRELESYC

B1: Example 92 (peptide)
peptide: Y[Aib]EGTFISDYSI[αMeL]LDKIHQ[Aib]DFVEYK([AEEA-AEEA-γGlu-C20 diacid])LEQGPSSGAPPPS-NH2
modifications: N-terminus assumed
SMILES: CC[C@H](C)[C@H](NC(=O)[C@H](CCCCN)NC(=O)[C@H](CC(=O)O)NC(=O)[C@H](CC(C)C)NC(=O)[C@](C)(CC(C)C)NC(=O)[C@@H](NC(=O)[C@H](CO)NC(=O)[C@H](Cc1ccc(O)cc1)NC(=O)[C@H](CC(=O)O)NC(=O)[C@H](CO)NC(=O)[C@@H](NC(=O)[C@H](Cc1ccccc1)NC(=O)[C@@H](NC(=O)CNC(=O)[C@H](CCC(=O)O)NC(=O)C(C)(C)NC(=O)[C@@H](N)Cc1ccc(O)cc1)[C@@H](C)O)[C@@H](C)CC)[C@@H](C)CC)C(=O)N[C@@H](Cc1c[nH]cn1)C(=O)N[C@@H](CCC(N)=O)C(=O)NC(C)(C)C(=O)N[C@@H](CC(=O)O)C(=O)N[C@@H](Cc1ccccc1)C(=O)N[C@H](C(=O)N[C@@H](CCC(=O)O)C(=O)N[C@@H](Cc1ccc(O)cc1)C(=O)N[C@@H](CCCCNC(=O)COCCOCCNC(=O)COCCOCCNC(=O)CC[C@H](NC(=O)CCCCCCCCCCCCCCCCCCC(=O)O)C(=O)O)C(=O)N[C@@H](CC(C)C)C(=O)N[C@@H](CCC(=O)O)C(=O)N[C@@H](CCC(N)=O)C(=O)NCC(=O)N1CCC[C@H]1C(=O)N[C@@H](CO)C(=O)N[C@@H](CO)C(=O)NCC(=O)N[C@@H](C)C(=O)N1CCC[C@H]1C(=O)N1CCC[C@H]1C(=O)N1CCC[C@H]1C(=O)N[C@@H](CO)C(N)=O)C(C)C
B2: Example 24 (peptide)
peptide: Y[Aib]EGTFISDYSI[Aib]LDKK([AEEA-AEEA-γGlu-C18 diacid])HQ[Aib]DFVE[4Pal]LLAGGPSSGAPPPS-NH2
modifications: N-terminus assumed
SMILES: CC[C@H](C)[C@H](NC(=O)[C@H](Cc1ccccc1)NC(=O)[C@@H](NC(=O)CNC(=O)[C@H](CCC(=O)O)NC(=O)C(C)(C)NC(=O)[C@@H](N)Cc1ccc(O)cc1)[C@@H](C)O)C(=O)N[C@@H](CO)C(=O)N[C@@H](CC(=O)O)C(=O)N[C@@H](Cc1ccc(O)cc1)C(=O)N[C@@H](CO)C(=O)N[C@H](C(=O)NC(C)(C)C(=O)N[C@@H](CC(C)C)C(=O)N[C@@H](CC(=O)O)C(=O)N[C@@H](CCCCN)C(=O)N[C@@H](CCCCNC(=O)COCCOCCNC(=O)COCCOCCNC(=O)CC[C@H](NC(=O)CCCCCCCCCCCCCCCCC(=O)O)C(=O)O)C(=O)N[C@@H](Cc1c[nH]cn1)C(=O)N[C@@H](CCC(N)=O)C(=O)NC(C)(C)C(=O)N[C@@H](CC(=O)O)C(=O)N[C@@H](Cc1ccccc1)C(=O)N[C@H](C(=O)N[C@@H](CCC(=O)O)C(=O)N[C@@H](Cc1ccncc1)C(=O)N[C@@H](CC(C)C)C(=O)N[C@@H](CC(C)C)C(=O)N[C@@H](C)C(=O)NCC(=O)NCC(=O)N1CCC[C@H]1C(=O)N[C@@H](CO)C(=O)N[C@@H](CO)C(=O)NCC(=O)N[C@@H](C)C(=O)N1CCC[C@H]1C(=O)N1CCC[C@H]1C(=O)N1CCC[C@H]1C(=O)N[C@@H](CO)C(N)=O)C(C)C)[C@@H](C)CC
B3: Example 77 (peptide)
peptide: YXEGTXISDYSIXLDXKHQXDFVEXLLETGPSSGAPPPS
modifications: Aib2; Iva6; αMeL13; Orn16; K17((2-[2-(2-Amino-ethoxy)-ethoxy]-acetyl)2-(γ-Glu)-CO-(CH2)18-CO2H); Aib20; 4-Pal25; C-terminal amide
B4: Example 80 (peptide)
peptide: Y[Aib]EGTFISDYSI[αMeL]LD[Orn]K([AEEA-AEEA-γGlu-C20 diacid])HQ[Aib]DFVE[4Pal]LLETGPSSGAPPPS-NH2
modifications: N-terminus assumed
SMILES: CC[C@H](C)[C@H](NC(=O)[C@H](Cc1ccccc1)NC(=O)[C@@H](NC(=O)CNC(=O)[C@H](CCC(=O)O)NC(=O)C(C)(C)NC(=O)[C@@H](N)Cc1ccc(O)cc1)[C@@H](C)O)C(=O)N[C@@H](CO)C(=O)N[C@@H](CC(=O)O)C(=O)N[C@@H](Cc1ccc(O)cc1)C(=O)N[C@@H](CO)C(=O)N[C@H](C(=O)N[C@@](C)(CC(C)C)C(=O)N[C@@H](CC(C)C)C(=O)N[C@@H](CC(=O)O)C(=O)N[C@@H](CCCN)C(=O)N[C@@H](CCCCNC(=O)COCCOCCNC(=O)COCCOCCNC(=O)CC[C@H](NC(=O)CCCCCCCCCCCCCCCCCCC(=O)O)C(=O)O)C(=O)N[C@@H](Cc1c[nH]cn1)C(=O)N[C@@H](CCC(N)=O)C(=O)NC(C)(C)C(=O)N[C@@H](CC(=O)O)C(=O)N[C@@H](Cc1ccccc1)C(=O)N[C@H](C(=O)N[C@@H](CCC(=O)O)C(=O)N[C@@H](Cc1ccncc1)C(=O)N[C@@H](CC(C)C)C(=O)N[C@@H](CC(C)C)C(=O)N[C@@H](CCC(=O)O)C(=O)N[C@H](C(=O)NCC(=O)N1CCC[C@H]1C(=O)N[C@@H](CO)C(=O)N[C@@H](CO)C(=O)NCC(=O)N[C@@H](C)C(=O)N1CCC[C@H]1C(=O)N1CCC[C@H]1C(=O)N1CCC[C@H]1C(=O)N[C@@H](CO)C(N)=O)[C@@H](C)O)C(C)C)[C@@H](C)CC
B5: Example 9 (peptide)
peptide: YXEGTFISDYSILLDKKHQXDFVNWLLAQGPSSGAPPPS
modifications: D-Ala2; K17((2-[2-(2-Amino-ethoxy)-ethoxy]-acetyl)2-(γ-Glu)-CO-(CH2)18-CO2H); Aib20; C-terminal amide
B6: Example 31 (peptide)
peptide: Y[Aib]EGTFISDYSILLDKK([AEEA-AEEA-γGlu-C18 diacid])HQ[Aib]DFVNYLLAAGPSSGAPPPS-NH2
modifications: N-terminus assumed
SMILES: CC[C@H](C)[C@H](NC(=O)[C@H](CO)NC(=O)[C@H](Cc1ccc(O)cc1)NC(=O)[C@H](CC(=O)O)NC(=O)[C@H](CO)NC(=O)[C@@H](NC(=O)[C@H](Cc1ccccc1)NC(=O)[C@@H](NC(=O)CNC(=O)[C@H](CCC(=O)O)NC(=O)C(C)(C)NC(=O)[C@@H](N)Cc1ccc(O)cc1)[C@@H](C)O)[C@@H](C)CC)C(=O)N[C@@H](CC(C)C)C(=O)N[C@@H](CC(C)C)C(=O)N[C@@H](CC(=O)O)C(=O)N[C@@H](CCCCN)C(=O)N[C@@H](CCCCNC(=O)COCCOCCNC(=O)COCCOCCNC(=O)CC[C@H](NC(=O)CCCCCCCCCCCCCCCCC(=O)O)C(=O)O)C(=O)N[C@@H](Cc1c[nH]cn1)C(=O)N[C@@H](CCC(N)=O)C(=O)NC(C)(C)C(=O)N[C@@H](CC(=O)O)C(=O)N[C@@H](Cc1ccccc1)C(=O)N[C@H](C(=O)N[C@@H](CC(N)=O)C(=O)N[C@@H](Cc1ccc(O)cc1)C(=O)N[C@@H](CC(C)C)C(=O)N[C@@H](CC(C)C)C(=O)N[C@@H](C)C(=O)N[C@@H](C)C(=O)NCC(=O)N1CCC[C@H]1C(=O)N[C@@H](CO)C(=O)N[C@@H](CO)C(=O)NCC(=O)N[C@@H](C)C(=O)N1CCC[C@H]1C(=O)N1CCC[C@H]1C(=O)N1CCC[C@H]1C(=O)N[C@@H](CO)C(N)=O)C(C)C
B7: Example 32 (peptide)
peptide: Y[dA]EGTLISDYSILLDKK([AEEA-AEEA-γGlu-C18 diacid])AQ[Aib]DFVNWLLAQGPSSGAPPPS-NH2
modifications: N-terminus assumed
SMILES: CC[C@H](C)[C@H](NC(=O)[C@H](CO)NC(=O)[C@H](Cc1ccc(O)cc1)NC(=O)[C@H](CC(=O)O)NC(=O)[C@H](CO)NC(=O)[C@@H](NC(=O)[C@H](CC(C)C)NC(=O)[C@@H](NC(=O)CNC(=O)[C@H](CCC(=O)O)NC(=O)[C@@H](C)NC(=O)[C@@H](N)Cc1ccc(O)cc1)[C@@H](C)O)[C@@H](C)CC)C(=O)N[C@@H](CC(C)C)C(=O)N[C@@H](CC(C)C)C(=O)N[C@@H](CC(=O)O)C(=O)N[C@@H](CCCCN)C(=O)N[C@@H](CCCCNC(=O)COCCOCCNC(=O)COCCOCCNC(=O)CC[C@H](NC(=O)CCCCCCCCCCCCCCCCC(=O)O)C(=O)O)C(=O)N[C@@H](C)C(=O)N[C@@H](CCC(N)=O)C(=O)NC(C)(C)C(=O)N[C@@H](CC(=O)O)C(=O)N[C@@H](Cc1ccccc1)C(=O)N[C@H](C(=O)N[C@@H](CC(N)=O)C(=O)N[C@@H](Cc1c[nH]c2ccccc12)C(=O)N[C@@H](CC(C)C)C(=O)N[C@@H](CC(C)C)C(=O)N[C@@H](C)C(=O)N[C@@H](CCC(N)=O)C(=O)NCC(=O)N1CCC[C@H]1C(=O)N[C@@H](CO)C(=O)N[C@@H](CO)C(=O)NCC(=O)N[C@@H](C)C(=O)N1CCC[C@H]1C(=O)N1CCC[C@H]1C(=O)N1CCC[C@H]1C(=O)N[C@@H](CO)C(N)=O)C(C)C

One assay concerns the target T1, human glucose-dependent insulinotropic …. Put plainly: SPA, displacement of [125I]-GIP from hGIPR membranes, 0.1% bacitracin. How it is done: The binding buffer contains 25 mM HEPES, pH 7.4, 2.5 mM CaCl₂, 1 mM MgCl₂, 0.1% (w/v) bacitracin, 0.003% (w/v) TWEEN®-20, and Roche Complete™ Protease Inhibitors without EDTA. […] Plates are sealed and mixed on a plate shaker (setting 6) for 1 minute and read with a PerkinElmer Trilux MicroBeta® scintillation counter after 2.5 to 12 hours of incubation/settling time at room temperature.
(§1) Data are analyzed using four-parameter (curve maximum, curve minimum, […], Hill slope) nonlinear regression routines (Genedata Screener, version 12.0.4, Genedata AG, Basal, Switzerland). […] Values for Kᵢ are reported as the geometric mean, with error expressed as the standard error of the mean (SEM) and n is equal to the number of independent replicates (determined in assays performed on different days). Geometric Means are calculated as follows: […]
For orientation: In a radioligand displacement assay an active substance lowers the binding of a labelled ligand.
B1: the inhibitory constant (Ki) is 33.1 pM.

Regarding B2, the Ki was found to be 254 pM. This Ki is about 7.7-fold higher than that of the molecule before.

Molecule B3 gave a Ki of 84.1 pM.

For the molecule B4, affinity was put at a Ki of 82.8 pM. This Ki and that of the molecule before are within 1.5-fold of each other.

The molecule B5 registered a Ki of 110 pM.

Molecule B6 showed an inhibition constant (Ki) of 47.3 pM.

B7 yielded a Ki of 34.3 pM. The Ki values of the last two molecules are within 1.5-fold of each other.

The target in the next assay is T2, human GLP-1 receptor (human, UniProt P43220 24-463).
T2 construct: whole, on cells; Assayed as crude membranes of stably transfected HEK293 cells; also called hGLP1R; hGLP-1R
Put plainly: SPA, displacement of [125I]-GLP-1 from hGLP-1R membranes, 0.1% bacitracin. How it is done:
The binding buffer contains 25 mM HEPES, pH 7.4, 2.5 mM CaCl₂, 1 mM MgCl₂, 0.1% (w/v) bacitracin, 0.003% (w/v) TWEEN®-20, and Roche Complete™ Protease Inhibitors without EDTA.
as §1
For the molecule B2, affinity was put at a Ki of 729000 pM. In other words, the sub-micromolar range.

Consider B5, for which the Ki was 168000 pM.

B6 came in with a Ki of 266000 pM. This Ki lies about 1.6-fold higher than the previous one.

Turning to B7, the Ki stood at 85200 pM.
